Substitutions are numbered along the chain they refer to.
T1: human CD7 (human, UniProt P09564 26-180, limits assumed)
T1 construct: The construct is not described
T1 sequence (looked up): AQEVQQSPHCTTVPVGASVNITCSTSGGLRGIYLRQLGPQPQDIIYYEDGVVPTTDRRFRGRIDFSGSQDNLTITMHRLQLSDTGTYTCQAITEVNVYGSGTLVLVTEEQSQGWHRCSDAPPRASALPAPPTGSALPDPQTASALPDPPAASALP

T2: human CD7 on cells (human, UniProt P09564 26-240)
T2 construct: whole, on cells; Target of the FACS and cell capture values and of the kill assays on CD7 single positive cells; also called CD7+ cells; Jurkat (CD33-/CD7+)
T2 sequence (looked up): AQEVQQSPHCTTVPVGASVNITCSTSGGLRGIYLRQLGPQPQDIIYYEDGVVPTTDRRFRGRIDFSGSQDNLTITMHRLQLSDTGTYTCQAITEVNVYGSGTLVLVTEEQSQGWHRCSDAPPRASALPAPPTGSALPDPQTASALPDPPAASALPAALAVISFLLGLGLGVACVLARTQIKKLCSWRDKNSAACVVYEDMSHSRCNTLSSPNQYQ

B1: CD7-PP-7 CD7 binding arm (Fab, V domains shown)
VH: QVQLQESGAELVKPGASVKLSCKASGYTFTSYWMHWVKQRPGQGLEWIGKINPSNGGTNYNEKFKSKATLTVDKSSSTAYMQLSSLTSEDSAVYYCARGGVYYDLYYAALDYWGQGTTVTVSS
VL: DIELTQSPATLSVTPGDSVSLSCRASQSISNNLHWYQQKSHESPRLLIKSASQSISGIPSRFSGSGSGTDFTLSINSVETEDFGMYFCQQSNSWPYTFGGGTKLEIKR
notes: Heavy chain Arg57Gly/Tyr108Ala
B2: CD7-PP-12 CD7 binding arm (Fab, V domains shown)
VH: B1 VH with G57R, A108Y
VL: B1 VL with Q27A
notes: Light chain Gln27Ala
B3: CD7-PP-8 CD7 binding arm (Fab, V domains shown)
VH: B1 VH with G57K
VL: B1 VL
B4: 7-PP-11 (Fab, V domains shown)
VH: B1 VH with G57R, D104A
VL: B1 VL
B5: CD7-PP-6 binding arm (Fab, V domains shown)
VH: B1 VH with G57R, D104A, A108Y
VL: B1 VL
notes: Heavy chain Asp104Ala
B6: CD7-PP-3 CD7 binding arm (Fab, V domains shown)
VH: B1 VH with G57K, A108Y
VL: B1 VL
notes: Heavy chain Arg57Lys
B7: CD7-PP-2 CD7 binding arm (Fab, V domains shown)
VH: B1 VH with A108Y
VL: B1 VL
notes: Heavy chain Arg57Gly
B8: 7-PP-4 (Fab, V domains shown)
VH: B1 VH with G57R, Y102T, A108Y
VL: B1 VL
B9: 7-PP-10 (Fab, V domains shown)
VH: B1 VH with G57R, L105G
VL: B1 VL
B10: 7-PP-5 (Fab, V domains shown)
VH: B1 VH with G57R, L105G, A108Y
VL: B1 VL
B11: 7-PP-9 (Fab, V domains shown)
VH: B1 VH with G57R, Y102T
VL: B1 VL
B12: BVX100-MMAE (bispecific antibody)
heavy: QVQLQESGAELVKPGASVKLSCKASGYTFTSYWMHWVKQRPGQGLEWIGKINPSNGRTNYNEKFKSKATLTVDKSSSTAYMQLSSLTSEDSAVYYCARGGVYYDLYYYALDYWGQGTTVTVSSASTKGPSVFPLAPSSKSTSGGTAALGCLVKDYFPEPVTVSWNSGALTSGVHTFPAVLQSSGLYSLSSVVTVPSSSLGTQTYCCNVNHKPSNTKVDKKVEPKSCDKT
light: DIELTQSPATLSVTPGDSVSLSCRASQSISNNLHWYQQKSHESPRLLIKSASQSISGIPSRFSGSGSGTDFTLSINSVETEDFGMYFCQQSNSWPYTFGGGTKLEIKRTVAAPSVFIFPPSDEQLKSGTASVVCLLNNFYPREAKVQWKVDNALQSGNSQESVTEQDSKDSTYSLSSTLTLSKADYEKHKVYACEVTHQGLSSPVTKSFNRGEC
VH: EVQLVQSGAEVKKPGSSVKVSCKASGYTITDSNIHWVRQAPGQSLEWIGYIYPYNGGTDYNQKFKNRATLTVDNPTNTAYMELSSLRSEDTAFYYCVNGNPWLAYWGQGTLVTVSS
VL: DIQLTQSPSTLSASVGDRVTIICRASESLDNYGIRFLTWFQQKPGKAPKLLMYAASNQGSGVPSRFSGSGSGTEFTLTISSLQPDDFATYYCQQTKEVPWSFGQGTKLEIK
B13: BVX160-MMAE (bispecific antibody)
heavy: B12 heavy with Y108A
light: B12 light
VH: B12 VH
VL: B12 VL
B14: BVX120-MMAE (bispecific antibody)
heavy: B12 heavy with R57K
light: B12 light
VH: B12 VH
VL: B12 VL
B15: BVX110-MMAE (bispecific antibody)
heavy: B12 heavy with R57G
light: B12 light
VH: B12 VH
VL: B12 VL
B16: BVX150-MMAE (bispecific antibody)
heavy: B12 heavy with R57K, Y108A
light: B12 light
VH: B12 VH
VL: B12 VL
B17: BVX140-MMAE (bispecific antibody)
heavy: B12 heavy with R57G, Y108A
light: B12 light
VH: B12 VH
VL: B12 VL
B18: BVX130-MMAE (bispecific antibody)
heavy: B12 heavy with D104A
light: B12 light
VH: B12 VH
VL: B12 VL

Target: T1, human CD7
Test: SPR

Row | Kd | Binder
1 | 541 nM | B1
2 | 5.46 nM | B2
3 | 229 nM | B3
4 | 246 nM | B4
5 | 45.2 nM | B5
6 | 32.5 nM | B6
7 | 75.7 nM | B7

Target: T2, human CD7 on cells
Test: FACS; cells not named

Row | FACS binding | Binder
8 | 1990 | B8
9 | 267 | B1
10 | 0.002 | B2
11 | 335 | B9
12 | 268 | B10
13 | 275 | B11
14 | 96.8 | B3
15 | 55.9 | B4
16 | 9.76 | B5
17 | 13 | B6
18 | 34.6 | B7

Target: T1, human CD7
Test: SPR; reference 7-AA-WT

Row | Fold Reduction in binding affinity compared to WT (Kd) | Binder
19 | 206 fold | B1
20 | 2.08 fold | B2
21 | 87.2 fold | B3
22 | 93.7 fold | B4
23 | 17.2 fold | B5
24 | 12.4 fold | B6
25 | 28.8 fold | B7

Target: T2, human CD7 on cells
Test: cell-based or functional assay

Row | Binder | EC50 (nM), cytotoxicity (MTS, 96 h) on Jurkat cells (CD7+/CD33-)
26 | B12 | 0.92 nM
27 | B13 | 7.31 nM
28 | B14 | 1.52 nM
29 | B15 | 4.52 nM
30 | B16 | 1.6 nM
31 | B17 | 22.8 nM
32 | B18 | 5.83 nM

Target: human CD33 on cells (human, UniProt P20138 18-364)
Sequence (P20138 18-364): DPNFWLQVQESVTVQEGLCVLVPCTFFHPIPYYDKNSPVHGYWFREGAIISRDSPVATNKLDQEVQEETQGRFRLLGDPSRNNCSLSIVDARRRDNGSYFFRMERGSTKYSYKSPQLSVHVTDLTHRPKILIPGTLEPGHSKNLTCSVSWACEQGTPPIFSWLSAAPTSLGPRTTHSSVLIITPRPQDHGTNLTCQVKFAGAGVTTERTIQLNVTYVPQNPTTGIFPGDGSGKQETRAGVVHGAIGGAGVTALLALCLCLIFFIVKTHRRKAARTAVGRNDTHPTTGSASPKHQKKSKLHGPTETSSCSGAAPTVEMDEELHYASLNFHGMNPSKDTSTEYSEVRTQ
Test: cell-based or functional assay

Row | Binder | EC50 (nM), cytotoxicity (MTS, 96 h) on MV4.11 cells (CD7-/CD33+) | EC50 (nM), cytotoxicity (MTS, 96 h) on SHI-1 cells (CD7-/CD33+)
33 | B12 | 10.8 nM | 2.26 nM
34 | B14 | 16.5 nM | 7.21 nM
35 | B15 | 27 nM | 11.4 nM
36 | B16 | 9.19 nM | 5.23 nM
37 | B18 | 24.1 nM | 17.5 nM

Target: T1, human CD7
Test: SPR; reference 7-PP-1 WT

Row | Fold Reduction in binding affinity compared to PP WT (Kd) | Binder
38 | 152 fold | B1
39 | 1.53 fold | B2
40 | 64.3 fold | B3
41 | 69.1 fold | B4
42 | 12.7 fold | B5
43 | 9.13 fold | B6
44 | 21.3 fold | B7

Target: T2, human CD7 on cells
Test: FACS; reference 7-PP-1 WT

Row | FACS fold reduction compared to PP WT | Binder
45 | 3740 fold | B8
46 | 502 fold | B1
47 | 0.004 fold | B2
48 | 628 fold | B9
49 | 503 fold | B10
50 | 517 fold | B11
51 | 182 fold | B3
52 | 105 fold | B4
53 | 18.3 fold | B5
54 | 24.5 fold | B6
55 | 64.9 fold | B7

Reference: patent publication US20250269048A1 (BIVICTRIX, published 2025)
